From the FLAb antibody collection (doi:10.7554/elife.23156)

B1: scFv; the commonest letter at each place (parent)
chain 1: EVKLDETGGGLVQPGRPMKLSCVASGFTFSDYWMNWVRQSPEKGLEWVAQIRNKPYNYETYYSDSVKGRFTISRDDSKSSVYLQMNNLRVEDMGIYYCTGSYYGMDYWGQGTSVTVS
chain 2: DVVMTQTPLSLPVSLGDQASISCRSSQSLVHSNGNTYLRWYLQKPGQSPKVLIYKVSNRFSGVPDRFSGSGSGTDFTLKISRVEAEDLGVYFCSQSTHVPWTFGGGTKLEIK

Tests used:
fluorescein = variants of: B1; assay: Kd (Tite-Seq); details: with fluorescein; format: scFv 4-4-20, heavy + light
[1] = variants of: B1; assay: yeast surface expression (ratio to wild type); higher = more expressed; details: format: scFv 4-4-20, heavy + light

| Kd (fluorescein) [µM] | Variant | yeast surface expression [1] |
| --- | --- | --- |
| ≥ 10 | chain 1 EVKLDETGGGLVQPGRPMKLSCVASGFTFSDYWMNWVRQSPEKGLEWVAQIRNKPYNYETYYSDSVKGRFTISRDDSKSSVYLQMNNLRVEDMGIYYCTGSYYGMWGWLQGTSVTVS chain 2 DVVMTQTPLSLPVSLGDQASISCRSSQSLVHSNGNTYLRWYLQKPGQSPKVLIYKVSNRFSGVPDRFSGSGSGTDFTLKISRVEAEDLGVYFCSQSTHVPWTFGGGTKLEIK [chain 1 D106W Y107G G109L] | 0.109 |
| 0.00325 | chain 1 EVKLDETGGGLVQPGRPMKLSCVASGFRFSKYWMNWVRQSPEKGLEWVAQIRNKPYNYETYYSDSVKGRFTISRDDSKSSVYLQMNNLRVEDMGIYYCTGSYYGMDYWGQGTSVTVS chain 2 DVVMTQTPLSLPVSLGDQASISCRSSQSLVHSNGNTYLRWYLQKPGQSPKVLIYKVSNRFSGVPDRFSGSGSGTDFTLKISRVEAEDLGVYFCSQSTHVPWTFGGGTKLEIK [chain 1 T28R D31K] | 0.833 |
| ≥ 10 | chain 1 EVKLDETGGGLVQPGRPMKLSCVASGFTFSDYWMNWVRQSPEKGLEWVAQIRNKPYNYETYYSDSVKGRFTISRDDSKSSVYLQMNNLRVEDMGIYYCTNSYYGMDYWGQGTSVTVS chain 2 DVVMTQTPLSLPVSLGDQASISCRSSQSLVHSNGNTYLRWYLQKPGQSPKVLIYKVSNRFSGVPDRFSGSGSGTDFTLKISRVEAEDLGVYFCSQSTHVPWTFGGGTKLEIK [chain 1 G100N] | 0.668 |
| 0.00708 | chain 1 EVKLDETGGGLVQPGRPMKLSCVASGFTFSDYWMNWVRQSPEKGLEWVAQIRNKPYNYETYYSDSVKGRFTISRDDSKSSVYLQMNNLRVEDMGIYYCTGSYNGMDYWGQGTSVTVS chain 2 DVVMTQTPLSLPVSLGDQASISCRSSQSLVHSNGNTYLRWYLQKPGQSPKVLIYKVSNRFSGVPDRFSGSGSGTDFTLKISRVEAEDLGVYFCSQSTHVPWTFGGGTKLEIK [chain 1 Y103N] | 1.17 |
| ≥ 10 | chain 1 EVKLDETGGGLVQPGRPMKLSCVASGFTFSDYWMNWVRQSPEKGLEWVAQIRNKPYNYETYYSDSVKGRFTISRDDSKSSVYLQMNNLRVEDMGIYYCTGSYIPMDYWMQGTSVTVS chain 2 DVVMTQTPLSLPVSLGDQASISCRSSQSLVHSNGNTYLRWYLQKPGQSPKVLIYKVSNRFSGVPDRFSGSGSGTDFTLKISRVEAEDLGVYFCSQSTHVPWTFGGGTKLEIK [chain 1 Y103I G104P G109M] | 0.279 |
| ≥ 10 | chain 1 EVKLDETGGGLVQPGRPMKLSCVASGFTFSDYWMNWVRQSPEKGLEWVAQIRNKPYNYETYYSDSVKGRFTISRDDSKSSVYLQMNNLRVEDMGIYYCTGSYWGMKYWGQGTSVTVS chain 2 DVVMTQTPLSLPVSLGDQASISCRSSQSLVHSNGNTYLRWYLQKPGQSPKVLIYKVSNRFSGVPDRFSGSGSGTDFTLKISRVEAEDLGVYFCSQSTHVPWTFGGGTKLEIK [chain 1 Y103W D106K] | 0.245 |
| ≥ 10 | chain 1 EVKLDETGGGLVQPGRPMKLSCVASGFTFSDYWMNWVRQSPEKGLEWVAQIRNKPYNYETYYSDSVKGRFTISRDDSKSSVYLQMNNLRVEDMGIYYCTGSYAGMDYEGQGTSVTVS chain 2 DVVMTQTPLSLPVSLGDQASISCRSSQSLVHSNGNTYLRWYLQKPGQSPKVLIYKVSNRFSGVPDRFSGSGSGTDFTLKISRVEAEDLGVYFCSQSTHVPWTFGGGTKLEIK [chain 1 Y103A W108E] | 0.603 |
| ≥ 10 | chain 1 EVKLDETGGGLVQPGRPMKLSCVASGFTFSDYWMNWVRQSPEKGLEWVAQIRNKPYNYETYYSDSVKGRFTISRDDSKSSVYLQMNNLRVEDMGIYYCTGSYYGQDYWWQGTSVTVS chain 2 DVVMTQTPLSLPVSLGDQASISCRSSQSLVHSNGNTYLRWYLQKPGQSPKVLIYKVSNRFSGVPDRFSGSGSGTDFTLKISRVEAEDLGVYFCSQSTHVPWTFGGGTKLEIK [chain 1 M105Q G109W] | 0.115 |
| ≥ 10 | chain 1 EVKLDETGGGLVQPGRPMKLSCVASGFTFSDYWCNWHRQSPEKGLEWVAQIRNKPYNYETYYSDSVKGRFTISRDDSKSSVYLQMNNLRVEDMGIYYCTGSYYGMDYWGQGTSVTVS chain 2 DVVMTQTPLSLPVSLGDQASISCRSSQSLVHSNGNTYLRWYLQKPGQSPKVLIYKVSNRFSGVPDRFSGSGSGTDFTLKISRVEAEDLGVYFCSQSTHVPWTFGGGTKLEIK [chain 1 M34C V37H] | 0.466 |
| ≥ 10 | chain 1 EVKLDETGGGLVQPGRPMKLSCVASGFTFSDYELNWVRQSPEKGLEWVAQIRNKPYNYETYYSDSVKGRFTISRDDSKSSVYLQMNNLRVEDMGIYYCTGSYYGMDYWGQGTSVTVS chain 2 DVVMTQTPLSLPVSLGDQASISCRSSQSLVHSNGNTYLRWYLQKPGQSPKVLIYKVSNRFSGVPDRFSGSGSGTDFTLKISRVEAEDLGVYFCSQSTHVPWTFGGGTKLEIK [chain 1 W33E M34L] | 0.721 |
| ≥ 10 | chain 1 EVKLDETGGGLVQPGRPMKLSCVASGFTFSDYWMNWVRQSPEKGLEWVAQIRNKPYNYETYYSDSVKGRFTISRDDSKSSVYLQMNNLRVEDMGIYYCTGLYYGMKYWGQGTSVTVS chain 2 DVVMTQTPLSLPVSLGDQASISCRSSQSLVHSNGNTYLRWYLQKPGQSPKVLIYKVSNRFSGVPDRFSGSGSGTDFTLKISRVEAEDLGVYFCSQSTHVPWTFGGGTKLEIK [chain 1 S101L D106K] | 0.379 |
| 0.00166 | chain 1 EVKLDETGGGLVQPGRPMKLSCVASGFLFSDYWMNWVRQSPEKGLEWVAQIRNKPYNYETYYSDSVKGRFTISRDDSKSSVYLQMNNLRVEDMGIYYCTGSYYGMDYWGQGTSVTVS chain 2 DVVMTQTPLSLPVSLGDQASISCRSSQSLVHSNGNTYLRWYLQKPGQSPKVLIYKVSNRFSGVPDRFSGSGSGTDFTLKISRVEAEDLGVYFCSQSTHVPWTFGGGTKLEIK [chain 1 T28L] | 0.955 |
